Reference: the supplement of paper PMC9233669
This sample holds only a part of the variants without activity.

Key:
biotinyl-Phe-oxazolone = test: self-aminoacylation, catalytic enhancement (BFO) (fold over background); higher = more active; k-Seq, kA / k0A0; sequences stand for … in GGGAAUGGAUCCACAUCUACGAAUUC…UUCACUGCAGACUUGACGAAGCUG
How it was run: (§1)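 Catalytic enhancement equals the median kA over the uncatalyzed rate, the latter read from the low-activity peak of a bimodal Gaussian fit. Values of kA came from fitting each sequence's fraction reacted to a pseudo-first-order model, with 1000 bootstraps. Reacted RNA was captured with streptavidin and quantified by triplicate qPCR and Illumina sequencing after 90 minutes at room temperature with 2–1250 μM biotinyl-aminoacyl-oxazolone and 0.43 μM mutagenized RNA pools bearing a 21-nt variable region.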

biotinyl-Met-oxazolone = test: self-aminoacylation, catalytic enhancement (BMO) (fold over background); higher = more active; k-Seq, kA / k0A0; sequences stand for … in GGGAAUGGAUCCACAUCUACGAAUUC…UUCACUGCAGACUUGACGAAGCUG
How it was run: as §1

biotinyl-Trp-oxazolone = test: self-aminoacylation, catalytic enhancement (BWO) (fold over background); higher = more active; k-Seq, kA / k0A0; sequences stand for … in GGGAAUGGAUCCACAUCUACGAAUUC…UUCACUGCAGACUUGACGAAGCUG
How it was run: as §1

biotinyl-Leu-oxazolone = test: self-aminoacylation, catalytic enhancement (BLO) (fold over background); higher = more active; k-Seq, kA / k0A0; sequences stand for … in GGGAAUGGAUCCACAUCUACGAAUUC…UUCACUGCAGACUUGACGAAGCUG
How it was run: as §1

AAAGUUGCUAAUAGUCGCAAG [Fam3.1 aminoacylation ribozyme variant]
self-aminoacylation (biotinyl-Phe-oxazolone): 3.77
self-aminoacylation (biotinyl-Met-oxazolone): 2.06

AAAUUUGCUAAUUGUCGCAAG [Fam3.1 aminoacylation ribozyme variant]
self-aminoacylation (biotinyl-Met-oxazolone): 2.03

AAGCUUGCUAAUAGUCGCAAA [Fam3.1 aminoacylation ribozyme variant]
self-aminoacylation (biotinyl-Phe-oxazolone): 2.75
self-aminoacylation (biotinyl-Met-oxazolone): 2.21
self-aminoacylation (biotinyl-Trp-oxazolone): 2.2

AAGUUCGCGAAUAGUCGCAAG [Fam3.1 aminoacylation ribozyme variant]
self-aminoacylation (biotinyl-Phe-oxazolone): 5.66
self-aminoacylation (biotinyl-Met-oxazolone): 2.31
self-aminoacylation (biotinyl-Trp-oxazolone): 3.3

AAGUUUGCGAAUAGUCGCAAU [Fam3.1 aminoacylation ribozyme variant]
self-aminoacylation (biotinyl-Phe-oxazolone): 6.18
self-aminoacylation (biotinyl-Met-oxazolone): 2.13

ACGUUUGCUAAAAGUCGCAAG [Fam3.1 aminoacylation ribozyme variant]
self-aminoacylation (biotinyl-Phe-oxazolone): 3.93
self-aminoacylation (biotinyl-Met-oxazolone): 2.09
self-aminoacylation (biotinyl-Trp-oxazolone): 3.43

AGGUUUGCUAAAAGUCGCAAG [Fam3.1 aminoacylation ribozyme variant]
self-aminoacylation (biotinyl-Phe-oxazolone): 10.5
self-aminoacylation (biotinyl-Met-oxazolone): 2.13
self-aminoacylation (biotinyl-Trp-oxazolone): 4.38

AUACACCUAGGUCAUCGGCUG [Fam2.2 aminoacylation ribozyme variant]
self-aminoacylation (biotinyl-Leu-oxazolone): 2.03
self-aminoacylation (biotinyl-Phe-oxazolone): 4
self-aminoacylation (biotinyl-Met-oxazolone): 2.13

AUACUUCAAACAAUCGGCCUG [Fam1A.1 aminoacylation ribozyme variant]
self-aminoacylation (biotinyl-Leu-oxazolone): 2.02
self-aminoacylation (biotinyl-Phe-oxazolone): 20.7
self-aminoacylation (biotinyl-Trp-oxazolone): 15.5

AUUAACCUAGGACAUCGGGUG [Fam2.2 aminoacylation ribozyme variant]
self-aminoacylation (biotinyl-Leu-oxazolone): 3.2
self-aminoacylation (biotinyl-Phe-oxazolone): 14.2
self-aminoacylation (biotinyl-Trp-oxazolone): 2.82

AUUACCAUGCUCAUCGAGUGA [Fam2.1 aminoacylation ribozyme variant]
self-aminoacylation (biotinyl-Leu-oxazolone): 2.12
self-aminoacylation (biotinyl-Phe-oxazolone): 2.98
self-aminoacylation (biotinyl-Met-oxazolone): 2.63
self-aminoacylation (biotinyl-Trp-oxazolone): 2.15

AUUACCCUGGACAUCAAGUGA [Fam2.1 aminoacylation ribozyme variant]
self-aminoacylation (biotinyl-Leu-oxazolone): 2.29
self-aminoacylation (biotinyl-Phe-oxazolone): 5.55
self-aminoacylation (biotinyl-Met-oxazolone): 2.33
self-aminoacylation (biotinyl-Trp-oxazolone): 2.98

AUUACCCUGGUCAACGAGUGU [Fam2.1 aminoacylation ribozyme variant]
self-aminoacylation (biotinyl-Leu-oxazolone): 3
self-aminoacylation (biotinyl-Phe-oxazolone): 6.18
self-aminoacylation (biotinyl-Met-oxazolone): 2.91
self-aminoacylation (biotinyl-Trp-oxazolone): 3.43

AUUACCCUUGUCAUCGUGUGA [Fam2.1 aminoacylation ribozyme variant]
self-aminoacylation (biotinyl-Leu-oxazolone): 2.69
self-aminoacylation (biotinyl-Phe-oxazolone): 5.78
self-aminoacylation (biotinyl-Met-oxazolone): 2.59
self-aminoacylation (biotinyl-Trp-oxazolone): 2.88

AUUACCUUCGUCAUCGAGUGA [Fam2.1 aminoacylation ribozyme variant]
self-aminoacylation (biotinyl-Leu-oxazolone): 2.18
self-aminoacylation (biotinyl-Phe-oxazolone): 2.48
self-aminoacylation (biotinyl-Met-oxazolone): 2.22
self-aminoacylation (biotinyl-Trp-oxazolone): 2.15

AUUAUCCUCGUCAUCGAGUGA [Fam2.1 aminoacylation ribozyme variant]
self-aminoacylation (biotinyl-Leu-oxazolone): 2.75
self-aminoacylation (biotinyl-Phe-oxazolone): 5.23
self-aminoacylation (biotinyl-Met-oxazolone): 2.95
self-aminoacylation (biotinyl-Trp-oxazolone): 3

AUUCACCCAGGUCAUAGGGUG [Fam2.2 aminoacylation ribozyme variant]
self-aminoacylation (biotinyl-Leu-oxazolone): 2.46
self-aminoacylation (biotinyl-Phe-oxazolone): 7.85
self-aminoacylation (biotinyl-Trp-oxazolone): 2.08

AUUCACCCAGGUCGUCGGGUG [Fam2.2 aminoacylation ribozyme variant]
self-aminoacylation (biotinyl-Leu-oxazolone): 2.84
self-aminoacylation (biotinyl-Phe-oxazolone): 9.93

AUUCACCUACGUCAUCUGGUG [Fam2.2 aminoacylation ribozyme variant]
self-aminoacylation (biotinyl-Leu-oxazolone): 2.24
self-aminoacylation (biotinyl-Phe-oxazolone): 6.74
self-aminoacylation (biotinyl-Met-oxazolone): 2.09

AUUCACCUAGGUCAUCGGCAG [Fam2.2 aminoacylation ribozyme variant]
self-aminoacylation (biotinyl-Leu-oxazolone): 2.03

AUUCGCCUAGGUCAUAGGGUG [Fam2.2 aminoacylation ribozyme variant]
self-aminoacylation (biotinyl-Leu-oxazolone): 2.47
self-aminoacylation (biotinyl-Phe-oxazolone): 7.92
self-aminoacylation (biotinyl-Met-oxazolone): 2.16

AUUGACCUAGCUCAUCGGGUG [Fam2.2 aminoacylation ribozyme variant]
self-aminoacylation (biotinyl-Phe-oxazolone): 11
self-aminoacylation (biotinyl-Met-oxazolone): 2.14
self-aminoacylation (biotinyl-Trp-oxazolone): 2.71

AUUUCCCUGGUCAUCGAGCGA [Fam2.1 aminoacylation ribozyme variant]
self-aminoacylation (biotinyl-Leu-oxazolone): 2.18
self-aminoacylation (biotinyl-Met-oxazolone): 2.25
self-aminoacylation (biotinyl-Trp-oxazolone): 2.59

CCACACUUCAAGCAAUCGCUU [Fam1B.1 aminoacylation ribozyme variant]
self-aminoacylation (biotinyl-Leu-oxazolone): 2.09
self-aminoacylation (biotinyl-Met-oxazolone): 2.06

CCACACUUCAAGCAAUCGGCU [Fam1B.1 aminoacylation ribozyme variant]
self-aminoacylation (biotinyl-Leu-oxazolone): 2.08
self-aminoacylation (biotinyl-Trp-oxazolone): 2.2

CCACACUUCAAGCCAUCGCUC [Fam1B.1 aminoacylation ribozyme variant]
self-aminoacylation (biotinyl-Leu-oxazolone): 2.19
self-aminoacylation (biotinyl-Trp-oxazolone): 2.72

CCACGCUUCAAACAAUCGGUC [Fam1B.1 aminoacylation ribozyme variant]
self-aminoacylation (biotinyl-Leu-oxazolone): 2.17
self-aminoacylation (biotinyl-Phe-oxazolone): 92.8
self-aminoacylation (biotinyl-Trp-oxazolone): 45.3

CCAUGCUUCAAGCAAUCGGUC [Fam1B.1 aminoacylation ribozyme variant]
self-aminoacylation (biotinyl-Leu-oxazolone): 2.66
self-aminoacylation (biotinyl-Phe-oxazolone): 76.2
self-aminoacylation (biotinyl-Trp-oxazolone): 39

CCCCACUUCAAGCAAUCGGUA [Fam1B.1 aminoacylation ribozyme variant]
self-aminoacylation (biotinyl-Leu-oxazolone): 2.71
self-aminoacylation (biotinyl-Phe-oxazolone): 11.8
self-aminoacylation (biotinyl-Trp-oxazolone): 3.44

CCCCUCUUCAAGCAAUCGGUC [Fam1B.1 aminoacylation ribozyme variant]
self-aminoacylation (biotinyl-Leu-oxazolone): 2.09
self-aminoacylation (biotinyl-Phe-oxazolone): 49.1
self-aminoacylation (biotinyl-Trp-oxazolone): 31.2

CCUCACUUCAAGCAAUCGGGC [Fam1B.1 aminoacylation ribozyme variant]
self-aminoacylation (biotinyl-Leu-oxazolone): 2.32
self-aminoacylation (biotinyl-Trp-oxazolone): 3.32

CCUCGCUUCAAGCAAUCGGUC [Fam1B.1 aminoacylation ribozyme variant]
self-aminoacylation (biotinyl-Leu-oxazolone): 2.24
self-aminoacylation (biotinyl-Phe-oxazolone): 81.2
self-aminoacylation (biotinyl-Trp-oxazolone): 36

CGCCACUUCAAGCAAUCGGUC [Fam1B.1 aminoacylation ribozyme variant]
self-aminoacylation (biotinyl-Leu-oxazolone): 2.26
self-aminoacylation (biotinyl-Phe-oxazolone): 37.1
self-aminoacylation (biotinyl-Trp-oxazolone): 24.2

CUACCUCAAACAAUCGGGCUG [Fam1A.1 aminoacylation ribozyme variant]
self-aminoacylation (biotinyl-Leu-oxazolone): 2.4
self-aminoacylation (biotinyl-Phe-oxazolone): 2.01
self-aminoacylation (biotinyl-Met-oxazolone): 2.02

CUACGUCAAACAAUCGCUCUG [Fam1A.1 aminoacylation ribozyme variant]
self-aminoacylation (biotinyl-Leu-oxazolone): 2.07
self-aminoacylation (biotinyl-Phe-oxazolone): 3.08

CUACUUCAAUCAAUCGGCCUG [Fam1A.1 aminoacylation ribozyme variant]
self-aminoacylation (biotinyl-Leu-oxazolone): 2.56
self-aminoacylation (biotinyl-Phe-oxazolone): 34.9
self-aminoacylation (biotinyl-Trp-oxazolone): 30.3

GUACUUCAAGCAAUCGGUCUG [Fam1A.1 aminoacylation ribozyme variant]
self-aminoacylation (biotinyl-Phe-oxazolone): 8.1
self-aminoacylation (biotinyl-Trp-oxazolone): 7.17

GUGUUUGCUAAUAGUCGCAAG [Fam3.1 aminoacylation ribozyme variant]
self-aminoacylation (biotinyl-Phe-oxazolone): 5.9
self-aminoacylation (biotinyl-Trp-oxazolone): 4.15

GUUCACCUAGGUCAUAGGGUG [Fam2.2 aminoacylation ribozyme variant]
self-aminoacylation (biotinyl-Leu-oxazolone): 2.08
self-aminoacylation (biotinyl-Phe-oxazolone): 2.11
self-aminoacylation (biotinyl-Trp-oxazolone): 2.22

UAGUUUCCUAAUAGUCGCAAG [Fam3.1 aminoacylation ribozyme variant]
self-aminoacylation (biotinyl-Phe-oxazolone): 2.31
self-aminoacylation (biotinyl-Trp-oxazolone): 2.1

UCACACUUCAAGUAAUCGGUC [Fam1B.1 aminoacylation ribozyme variant]
self-aminoacylation (biotinyl-Phe-oxazolone): 12.7
self-aminoacylation (biotinyl-Trp-oxazolone): 7.97

UUACUUCAAACAAUCGGUCAG [Fam1A.1 aminoacylation ribozyme variant]
self-aminoacylation (biotinyl-Phe-oxazolone): 8.02
self-aminoacylation (biotinyl-Trp-oxazolone): 5.17

UUACUUCAAUCAAUCGGUCUG [Fam1A.1 aminoacylation ribozyme variant]
self-aminoacylation (biotinyl-Phe-oxazolone): 19.7
self-aminoacylation (biotinyl-Trp-oxazolone): 15

UUAUUUCAAACAAUCGGUCUG [Fam1A.1 aminoacylation ribozyme variant]
self-aminoacylation (biotinyl-Phe-oxazolone): 5.5
self-aminoacylation (biotinyl-Trp-oxazolone): 3.27
